Laboratory results reported in the nanobody polyreactivity screen of Harvey et al. (2022).

Assay: yeast display, Sf9 membrane polyspecificity reagent, FACS + sequencing; frameworks hold sequencing errors
Method in brief: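 Sorting gates, low and high (top ~1%), were placed on anti-HA fluorescence to track expression and on streptavidin fluorescence to track reagent binding. A clone's polyreactivity label is taken from the gate it came out of. The reagent was 10% biotinylated, detergent-solubilized Sf9 membrane, applied for 1 hour at 4 °C to galactose-induced yeast display cells.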

In the case of “QVQLVESGGGLVQAGGSLRLSCAASGSIFARYAMGWYRQAPGKERELVAAIDQSAGSTYYADSVKGRFTISRDNAKNTVYLQMNSLKPEDTAVYYCNADYWYWWVITYVGPGLGYWGQGTQVTVSS”, the “polyreactivity (PSR sort gate)” value is reported as “high polyreactivity”.
For “QVQLVESGGGLVQAGGSLRLSCAASGSIFARYAMGWYRQAPGKERELVAAISSNSASTYYADSVKGRFTISRDNAKNTVYLQMNSLKPEDTAVYYCATAYRSYWLTDYSGQGTQVTVSS”, the “polyreactivity (PSR sort gate)” value was “low polyreactivity”.
With “QVQLVESGGGLVQAGGSLRLSCAASGSIFARYTMGGYRPAPGKASELVAAISTSGSRTYYADSVKGRFTISRDNAKKTVYLQRYSLKPEDTAVYFCAARNGGRYAPGLDYWGQGTQVTVSS” the “polyreactivity (PSR sort gate)” value was “high polyreactivity”.
With “QVQLVESGGGLVQAGGSLRLSCAASGSIFARYTMGWYRQAPGKERELVAAISSSGTSTYYADSVKGRFTISRDNAKNTVYLQMNSLKPEDTAVYYCAADWYYHYGYWGQGTQVTVSS” the “polyreactivity (PSR sort gate)” value was “high polyreactivity”.
For “QVQLVESGGGLVQAGGSLRLSCAASGSIFARYVMGWYRQAPGKERELVAAISRGGRTKYADSVKGRFTISRDNAKNTVYLQMNSLKPEDTAVYYCAAEPFNGRTDLDYWGQGTQVTVSS”, the “polyreactivity (PSR sort gate)” value was “high polyreactivity”.
With “QVQLVESGGGLVQAGGSLRLSCAASGSIFASNAMGWYRQAPGKEREFVAAITWRTDRTYYADSVKGRFTISRDNAKNTVYLQMNSLKPEDNAVYYCAADTWFDRFYYWGQGTQVTVSS” the “polyreactivity (PSR sort gate)” value was “high polyreactivity”.
For “QVQLVESGGGLVQAGGSLRLSCAASGSIFASNAMGWYRQAPGKERELVAAINSGDSTNYADSVKGRFTISRDNAKNTVYFQMNSLKPEDTAVYYCARGLEERYDYWGQGTQVTVSS”, the “polyreactivity (PSR sort gate)” value was “low polyreactivity”.
In the case of “QVQLVESGGGLVQAGGSLRLSCAASGSIFASNAMGWYRQAPGKERELVAAINSGGNTYEDSVKGRFTISRDNAKNTVYLQMNSLKPEDTAVYYCSVVWNWWSGLSPGYPDFDYWGQGTQVTVSS”, the “polyreactivity (PSR sort gate)” value is reported as “low polyreactivity”.
With “QVQLVESGGGLVQAGGSLRLSCAASGSIFASNTMGWYRQAPGKERELVAGITKIGSSTYYADSVKGRFTISRDNAKNTVYLQMNSLKPEDTAVYYCAAGAWRGPYSGYYYWGQGTQVTVST” the “polyreactivity (PSR sort gate)” value was “low polyreactivity”.
With “QVQLVESGGGLVQAGGSLRLSCAASGSIFASYAMGWYRQPPGKERELVAAISIGGTTNYADSVKGRFTISRDNAKNTVYLQMYSLKPEDTAVYYCNAGRWLFNYYYWIYDVRYDYWGQGTQVTVSS” the “polyreactivity (PSR sort gate)” value was “high polyreactivity”.
For “QVQLVESGGGLVQAGGSLRLSCAASGSIFASYVMGWSRQAPGKERELVAAISYSDGRTYYADSVKGRFTISRDNAKNTVYLQMNSLKPEDTAVYYCAADRHARLVIGYRRLRYEYWGQGTQVTVSS”, the “polyreactivity (PSR sort gate)” value was “low polyreactivity”.
With “QVQLVESGGGLVQAGGSLRLSCAASGSIFATNAMGCYRQAPGKERELVAAISRSGASTYYADSVKGRFTISRDNAKHTVYLQMNRLKPEDTAVYYCNKVLYRDAYQSYGFDYWGQGTQVTVSS” the “polyreactivity (PSR sort gate)” value was “high polyreactivity”.
For “QVQLVESGGGLVQAGGSLRLSCAASGSIFAVYAMGWYRQAPGKERELVAVITRSGGSTYYADSVKGRFTISRDNAKNTFYLQMNSLKPEDTAVYYCAARTGYGYTRYEYWGQGTQVTVSS”, the “polyreactivity (PSR sort gate)” value was “high polyreactivity”.
With “QVQLVESGGGLVQAGGSLRLSCAASGSIFAVYAMRCYRQAPAKARELVATITGIDTGTYYADSVKGRCTISRDIAKNTVYLHMNILKPEDTAVYYCAAVCRYRHLRFYYWGQGTQGTVSS” the “polyreactivity (PSR sort gate)” value was “high polyreactivity”.
In the case of “QVQLVESGGGLVQAGGSLRLSCAASGSIFAWYAMGWYRPAPGKERELVATITWSGGSTYYADSVKGRVTISRDNAKNTVYLQMNSLKPEDTAVYYCAAEVLGIWYDLWDQGDYGGQGTQVTVSS”, the “polyreactivity (PSR sort gate)” value is reported as “low polyreactivity”.
For “QVQLVESGGGLVQAGGSLRLSCAASGSIFAWYGMGWYRQAPGKERELVAAISTAGSTNYADSVKGRFTISRDNAKNTVYLQMNSLKPEDTAVYDCAKKSSWYYPERFDYWGQGTQVTVSS”, the “polyreactivity (PSR sort gate)” value was “low polyreactivity”.
In the case of “QVQLVESGGGLVQAGGSLRLSCAASGSIFAYNAMGWYRQAPGKEREFVAVITRSDDSTYADSVNGRFTISRDNAKNTVSLQMNSLKPEDTAVYYCAALQFVIDGGYRGDYWGQGTQVTVSS”, the “polyreactivity (PSR sort gate)” value is reported as “low polyreactivity”.
In the case of “QVQLVESGGGLVQAGGSLRLSCAASGSIFAYNAMGWYRQAPGKERELVAAISVGGGRTYYADSVKGRFTISRDNAKNTVYLQMNSLKPEDTAVYYCAASSTAKRYYWGQGTQVTVSS”, the “polyreactivity (PSR sort gate)” value is reported as “high polyreactivity”.
With “QVQLVESGGGLVQAGGSLRLSCAASGSIFAYYAMGWYRQAPGKERELVAAITRGGRKYYADSVKGRFTISRDNAKNTVYLQMNILKPEYTAVYYCNARNVYFVSPNYDYWGQCTQVTVSS” the “polyreactivity (PSR sort gate)” value was “high polyreactivity”.
With “QVQLVESGGGLVQAGGSLRLSCAASGSIFAYYAMGWYRQAPGKERELVAAITWSGGITYYADSVKGRFTISRDNAKNTVYLQMNSLKPEDTAVYYCNADEWPPYEYEYWGQGTQVTVSS” the “polyreactivity (PSR sort gate)” value was “low polyreactivity”.
With “QVQLVESGGGLVQAGGSLRLSCAASGSIFCQYVMGWYRQAPGKERVLVAAISWSGPRTYYADSVKGRFTISRDNAKNTVDLQMNSLKPEDTAVYYCAARRLYAGHQYDYWGQGTQVTVSS” the “polyreactivity (PSR sort gate)” value was “high polyreactivity”.
In the case of “QVQLVESGGGLVQAGGSLRLSCAASGSIFDAYAMGWYRQAPGKERELVAGITSGGSTNYADSVKGRFTISRDNAKNSVYLQMNSLKPEDTAVYYCAAQCDYANIYLIFNYWGQGTQVTVSS”, the “polyreactivity (PSR sort gate)” value is reported as “low polyreactivity”.
With “QVQLVESGGGLVQAGGSLRLSCAASGSIFDAYAMGWYRQSPGKERELVAAITTGGGSTYYADSVKGRFTISRDNAKNTVYLQMNSLKPEDTAVYYCAPDYGKYKGYYWGQGTQVTVSS” the “polyreactivity (PSR sort gate)” value was “low polyreactivity”.
With “QVQLVESGGGLVQAGGSLRLSCAASGSIFDDFAMGWYRQAPGKERELVAAISWSGGRTYYADSVKGRFTISRDNAKNTVYLHMNSLKPDDTAVYYCAATTGVRSRRYYYWGQGTQVTVSS” the “polyreactivity (PSR sort gate)” value was “low polyreactivity”.
With “QVQLVESGGGLVQAGGSLRLSCAASGSIFDDNAMGWYRQAPGKERELVAGISRGGSTNYADSVKGRFTISRDNANNTVYLQMNSLKPEDTAVYYCNKRYKPSWTTYDYWGQGTQVTVSS” the “polyreactivity (PSR sort gate)” value was “low polyreactivity”.
For “QVQLVESGGGLVQAGGSLRLSCAASGSIFDDNAMGWYRQAPGKEREMVAAISANDGSTYYADSVKGRFTISRDNAKNTVYLQRNSLNPEDTAVYYCAADVKDYAAQMDSWGQGTQVTVSS”, the “polyreactivity (PSR sort gate)” value was “low polyreactivity”.
For “QVQLVESGGGLVQAGGSLRLSCAASGSIFDDYAMGWYRQAPGKEREKVAAISWSGGRTYYADSVKGRFTISRDTAKNTVYLQMNSLKPEDTAVYYCAATTGVRSRRYYYWGQGTQVTVSS”, the “polyreactivity (PSR sort gate)” value was “high polyreactivity”.
With “QVQLVESGGGLVQAGGSLRLSCAASGSIFDDYAMGWYRQAPGKERELVAAISSSGTSTYYADSVKGRFTISRDNAKNTVYLQMNSLKPEDTAGYYCAARSAILKSGYLMDYWGQGTQVTVSS” the “polyreactivity (PSR sort gate)” value was “low polyreactivity”.
With “QVQLVESGGGLVQAGGSLRLSCAASGSIFDDYAMGWYRQAPGKERELVAAISWSGGSTYYADSVKGRFTISRDNAKNTVYLQINSLKPEDTAVYYCAKESGWVGAIHYDYWGQGTQVTVSS” the “polyreactivity (PSR sort gate)” value was “low polyreactivity”.
In the case of “QVQLVESGGGLVQAGGSLRLSCAASGSIFDDYAMGWYRQAPGKESELVAAITSGASTNYADSVKGRFTISRDNAKNTFSLQMNSLKPEDTAVYYCAADHDYFVNTDKFDDYWGQGTQVTVSS”, the “polyreactivity (PSR sort gate)” value is reported as “low polyreactivity”.
For “QVQLVESGGGLVQAGGSLRLSCAASGSIFDDYAMGWYRQATGKERQLVAAISSSGTSTYYADSVKGRFTISRDNAKNTVYLQMNSLKPEDTAVYYCAARSAILKSGYLMDYWGQGTQVTVSS”, the “polyreactivity (PSR sort gate)” value was “low polyreactivity”.
In the case of “QVQLVESGGGLVQAGGSLRLSCAASGSIFDFYAMGWDRQAPGKERELVAAISGSGGSTYYADSVKGRFTISRDNAKNTVYLQMNSLKPEDTAVYYCNAATYRTRHSNNGYWGQGTQVTVSS”, the “polyreactivity (PSR sort gate)” value is reported as “low polyreactivity”.
With “QVQLVESGGGLVQAGGSLRLSCAASGSIFDFYAMGWYRQAPGKERELVAAIDDIDDSTYYADSVKGRFTISRDNAKNTVYLQMNCLNPEDTAVYYCAAELRPGYRSSYGLIYDYWGQGTQVTVSS” the “polyreactivity (PSR sort gate)” value was “low polyreactivity”.
For “QVQLVESGGGLVQAGGSLRLSCAASGSIFDFYAMGWYRQAPGKERELVAAITWSGDTTYYADSVKGRFTISRDNAKNTVYLQMNSLKPEDTAVYYCAAEGWYWWYGRDYYWGQGTQVTVSS”, the “polyreactivity (PSR sort gate)” value was “high polyreactivity”.
In the case of “QVQLVESGGGLVQAGGSLRLSCAASGSIFDFYGMGWYRQAPGKERELVATITGTGGGTYYADSVKGRFTISRDNAKNTVYLQMNSLKPEDTAVYYCAADYPYGYWRGLFYYWGHGTQVTVSS”, the “polyreactivity (PSR sort gate)” value is reported as “low polyreactivity”.
In the case of “QVQLVESGGGLVQAGGSLRLSCAASGSIFDGNAMGWYRQAPGKERELVASISDSGGSTYYADSVKGRFTISRDNAKNTVYLQMNSLKPEDTAVYYCAKVFVRFYDYYINYWGQGTQVTVSS”, the “polyreactivity (PSR sort gate)” value is reported as “low polyreactivity”.
With “QVQLVESGGGLVQAGGSLRLSCAASGSIFDGNTMGWSRPAPGKERELVATIRWRGGRTYYADSVKGRFTISRDNAKNTVSLQMNSLKPEDTAVYYCNARWGYSRHRLMGYWGQGTQVTVSS” the “polyreactivity (PSR sort gate)” value was “high polyreactivity”.
In the case of “QVQLVESGGGLVQAGGSLRLSCAASGSIFDGYAMGWYIQAPGKDRELVAAISGSGGITYYADSVKGRFTISRDNAKNTVYLPMNSLKPEDTAVYYCAADYSWYAGYGYWGQGTQVTVSS”, the “polyreactivity (PSR sort gate)” value is reported as “low polyreactivity”.
With “QVQLVESGGGLVQAGGSLRLSCAASGSIFDGYAMRWYRQAPGKERELVAAIRWGDGITYYADSVKGRFTISRDIAKNTVYLLMNSLKPVDTAVYYCAAVQHGHEPRVQDSYDYWGQGTQVTVSS” the “polyreactivity (PSR sort gate)” value was “low polyreactivity”.
In the case of “QVQLVESGGGLVQAGGSLRLSCAASGSIFDHTNAMGWYRQAPGKERELVAAITSGSSTNYADSVKGRFTISRDNAKNTVYLQMNSLKPEDTAVYYCNADRFHSGIFDYWGQGTQVTVSS”, the “polyreactivity (PSR sort gate)” value is reported as “low polyreactivity”.
In the case of “QVQLVESGGGLVQAGGSLRLSCAASGSIFDHYAMGWYRQAPGKERELVAAITAICDSTYYADSVKGRFTISRDNAKNTVYLEKNSLKAEDTAVYYCAVTYGGSDGGDYWGQGTQGTVSS”, the “polyreactivity (PSR sort gate)” value is reported as “low polyreactivity”.
With “QVQLVESGGGLVQAGGSLRLSCAASGSIFDINAMGWYRQAPGKEREFVAAISWSGGTTYYADSVKGRFTISRDNAKNPVYLQMNSLKPEDTAVYYCAALSYVKRRQSYGYWGLGTQVTVSS” the “polyreactivity (PSR sort gate)” value was “high polyreactivity”.
With “QVQLVESGGGLVQAGGSLRLSCAASGSIFDINAMGWYRQAPGKERELVAAISYGGGSTSYADSVKGRFTISRDNAKNTVYLQMNSLKPEDTAVYYCAAGYTQSPRDDSWGQGTQVTVSS” the “polyreactivity (PSR sort gate)” value was “low polyreactivity”.
